Source: the RNAGym collection of RNA variant scans (doi:10.7554/elife.80360)

B1: Hairpin Ribozyme (parent)
chain: GUCCUCUUUCACGUGCGCGUGAAAGAGAGAAGUGAACCAGAGAAACACACGUUGUGGUAUAUUACCUGGUA

Variants of: B1
Assay: self-cleavage, relative activity (ratio to wild type); higher = more cleavage; co-transcriptional
With U53C C66A the self-cleavage was 0.249.
In the case of U53C C66U, the self-cleavage is reported as 0.69.
For G56C A64C, the self-cleavage was 0.104.
G56C A64G showed a self-cleavage of 0.148.
With G51U U60A the self-cleavage was 1.11.
With G54C G69U the self-cleavage was 0.113.
U53A A71U gave a self-cleavage of 0.706.
With U52A A59C the self-cleavage was 0.245.
For U52A A59G, the self-cleavage was 0.159.
In the case of U55A G69C, the self-cleavage is reported as 0.217.
C50G U70G gave a self-cleavage of 0.314.
U55C gave a self-cleavage of 0.25.
In the case of U55G, the self-cleavage is reported as 0.297.
Work on U55A yielded a self-cleavage of 0.258.
Variant G51U A64C has a self-cleavage of 0.188.
In the case of U55A G68C, the self-cleavage is reported as 0.098.
G51C A61G gave a self-cleavage of 0.138.
In the case of G51C A61U, the self-cleavage is reported as 0.196.
In the case of G51A G56C, the self-cleavage is reported as 0.148.
G54U C65U showed a self-cleavage of 0.171.
With G56U A71G the self-cleavage was 0.127.
For C50G U52A, the self-cleavage was 0.216.
C50U G54C gave a self-cleavage of 0.534.
Work on G51U C66G yielded a self-cleavage of 0.2.
C50U U70C gave a self-cleavage of 0.34.
For C50U U70G, the self-cleavage was 0.178.
With G56A C65U the self-cleavage was 0.104.
For G56A U70G, the self-cleavage was 0.254.
G54A A64G showed a self-cleavage of 0.403.
Variant G54A A64U has a self-cleavage of 0.114.
Work on G54A A64C yielded a self-cleavage of 0.152.
G54C C66A showed a self-cleavage of 0.169.
For U52C C66A, the self-cleavage was 0.279.
With U55G G68U the self-cleavage was 0.139.
G56C G68C gave a self-cleavage of 0.236.
U52G U55C showed a self-cleavage of 0.193.
For U52G U55G, the self-cleavage was 0.398.
For U52G U55A, the self-cleavage was 0.135.
U55G U58C gave a self-cleavage of 0.651.
G54U U58G showed a self-cleavage of 0.401.
Work on G54U U58C yielded a self-cleavage of 0.713.
With G51C U62C the self-cleavage was 0.239.
For U53G U67C, the self-cleavage was 0.136.
Work on U53G U67A yielded a self-cleavage of 0.182.
U53G U67G gave a self-cleavage of 0.119.
In the case of G54U U63C, the self-cleavage is reported as 0.214.
For U53C U62C, the self-cleavage was 0.347.
For U53G A61U, the self-cleavage was 0.186.
For U53A G56C, the self-cleavage was 0.208.
U53A G56A gave a self-cleavage of 0.0996.
U55G A71U showed a self-cleavage of 0.209.
G56U G69C showed a self-cleavage of 0.124.
With G56U G69A the self-cleavage was 0.114.
Work on G56U G69U yielded a self-cleavage of 0.207.
U55A U62C showed a self-cleavage of 0.229.
With U55A U62A the self-cleavage was 0.104.
U55A A71U gave a self-cleavage of 0.18.
For C50U U62C, the self-cleavage was 0.0808.
With C50U U62G the self-cleavage was 0.158.
Variant G54A U62C has a self-cleavage of 0.195.
In the case of U53G G54A, the self-cleavage is reported as 0.569.
For G56A U63G, the self-cleavage was 0.0781.
With G56A U63C the self-cleavage was 0.286.
For U52C U67A, the self-cleavage was 0.178.
G51C U52G showed a self-cleavage of 0.469.
Variant G51C U52A has a self-cleavage of 0.761.
Work on C50G G51U yielded a self-cleavage of 0.375.
In the case of G54A C66G, the self-cleavage is reported as 0.113.
For U55C C65G, the self-cleavage was 0.194.
G56C C65G showed a self-cleavage of 0.0604.
For G56C C65U, the self-cleavage was 0.16.
Work on G56A G69A yielded a self-cleavage of 0.148.
With G51A G57C the self-cleavage was 0.158.
Work on G51A G57A yielded a self-cleavage of 0.142.
With U52A A61U the self-cleavage was 0.094.
Work on U52A A61G yielded a self-cleavage of 0.22.
G51A U58A gave a self-cleavage of 0.674.
In the case of U53C A61C, the self-cleavage is reported as 0.142.
In the case of G51A U60A, the self-cleavage is reported as 1.18.
Variant G51A U60C has a self-cleavage of 0.944.
With G51A U60G the self-cleavage was 0.672.
With G56C A59C the self-cleavage was 0.154.
Variant G56C A59G has a self-cleavage of 0.205.
With U53C G57A the self-cleavage was 0.326.
U53C G57C showed a self-cleavage of 0.244.
Work on G51C G54U yielded a self-cleavage of 0.404.
In the case of G51C G54C, the self-cleavage is reported as 0.215.
Work on U53C U60C yielded a self-cleavage of 1.5.
Work on U55C A71G yielded a self-cleavage of 0.388.
For C50U C65U, the self-cleavage was 0.199.
U55G C66G showed a self-cleavage of 0.251.
In the case of U53A U67C, the self-cleavage is reported as 0.279.
In the case of U53C U67A, the self-cleavage is reported as 0.28.
U53C U67C showed a self-cleavage of 0.279.
In the case of U53C U67G, the self-cleavage is reported as 0.462.
Variant C50G G56U has a self-cleavage of 0.124.
In the case of C50G G56A, the self-cleavage is reported as 0.226.
C50G G56C showed a self-cleavage of 0.0923.
In the case of G54C U60A, the self-cleavage is reported as 0.272.
In the case of G54C U60C, the self-cleavage is reported as 0.47.
For U52A C65A, the self-cleavage was 1.06.
Variant U52C U62C has a self-cleavage of 0.248.
Work on G51C C65U yielded a self-cleavage of 0.296.
G51C C65A gave a self-cleavage of 0.857.
Work on G54C A64G yielded a self-cleavage of 0.18.
For U52G U62A, the self-cleavage was 0.187.
In the case of U53G C66G, the self-cleavage is reported as 0.152.
Variant U53G C66U has a self-cleavage of 0.552.
U53A A61G showed a self-cleavage of 0.0972.
For U53A A61C, the self-cleavage was 0.178.
Variant U55G U63C has a self-cleavage of 0.0583.
U52G C65G gave a self-cleavage of 0.266.
With G51A A64C the self-cleavage was 0.173.
With U53G A64C the self-cleavage was 0.0581.
Work on G51A G68C yielded a self-cleavage of 0.31.
Variant G51A G68U has a self-cleavage of 0.474.
Work on G51A G68A yielded a self-cleavage of 0.555.
C50G U55G showed a self-cleavage of 0.368.
Work on C50G U55A yielded a self-cleavage of 0.153.
For U52A A71G, the self-cleavage was 1.12.
For U52A A71U, the self-cleavage was 0.915.
For G51U A71C, the self-cleavage was 1.46.
With U53C G56U the self-cleavage was 0.196.
G51U U63C gave a self-cleavage of 0.136.
Work on U52A U53C yielded a self-cleavage of 1.32.
G51C A59C showed a self-cleavage of 0.14.
U52C U55G showed a self-cleavage of 0.301.
In the case of G51U U67C, the self-cleavage is reported as 0.299.
U52G A59U showed a self-cleavage of 0.177.
With U53G G68U the self-cleavage was 0.187.
Work on U53G G68C yielded a self-cleavage of 0.18.
Work on G54A G68C yielded a self-cleavage of 0.208.
Work on C50U G68A yielded a self-cleavage of 0.194.
Variant G54C G56C has a self-cleavage of 0.286.
Work on G54A U67G yielded a self-cleavage of 0.157.
Variant G54A G56U has a self-cleavage of 0.104.
In the case of G54A G56A, the self-cleavage is reported as 0.0848.
With U52G U58G the self-cleavage was 0.498.
In the case of G54A A71C, the self-cleavage is reported as 0.977.
U53G C65A showed a self-cleavage of 0.641.
In the case of U55G U62G, the self-cleavage is reported as 0.
For G51A C66G, the self-cleavage was 0.611.
Work on G56C U62G yielded a self-cleavage of 0.129.
For U53C A71U, the self-cleavage was 0.82.
In the case of G51C U67G, the self-cleavage is reported as 0.164.
Variant G51C U67C has a self-cleavage of 0.182.
Work on G51A U67G yielded a self-cleavage of 0.628.
Variant G54A G69A has a self-cleavage of 0.137.
In the case of U52C U58C, the self-cleavage is reported as 0.755.
Work on G56A G57U yielded a self-cleavage of 0.176.
In the case of U52G A64C, the self-cleavage is reported as 0.0463.
In the case of U52G A64G, the self-cleavage is reported as 0.301.
With G51C G57U the self-cleavage was 0.204.
G51C G57A gave a self-cleavage of 0.147.
With U52G U70G the self-cleavage was 0.933.
In the case of C50G U53C, the self-cleavage is reported as 0.327.
Variant G51A G69A has a self-cleavage of 0.596.
Variant G51A G69U has a self-cleavage of 0.439.
For U52C U70A, the self-cleavage was 1.22.
For G56A A71U, the self-cleavage was 0.142.
With G51C U63C the self-cleavage was 0.1.
Work on C50U C66U yielded a self-cleavage of 0.159.
With U53G U58C the self-cleavage was 0.987.
U53G U58G gave a self-cleavage of 0.405.
Variant G51A A61G has a self-cleavage of 0.269.
G51A A61U gave a self-cleavage of 0.192.
G54A A59C showed a self-cleavage of 0.307.
